Where a chain is given by its changes, count along the chain named. In names and notes the source's numbering stands.
B1: mAb CD3 F2B (antibody, V domains shown)
VH: EVQLVESGGGLVQPGRSLRLSCAASGFTFDDYAMHWVRQAPGKGLEWVSGISWNSGSIGYADSVKGRFTISRDNAKNSLYLQMNSLRAEDTALYYCAKDSRGYGDYRLGGAYWGQGTLVTVSS
VL: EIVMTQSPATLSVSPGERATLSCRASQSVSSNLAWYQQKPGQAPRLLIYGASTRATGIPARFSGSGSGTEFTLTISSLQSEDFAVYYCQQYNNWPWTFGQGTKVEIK
notes: also called F2B antibody; mAb F2B
B2: SEQ ID NO 5 (antibody, V domains shown)
VH: B1 VH with R107S
VL: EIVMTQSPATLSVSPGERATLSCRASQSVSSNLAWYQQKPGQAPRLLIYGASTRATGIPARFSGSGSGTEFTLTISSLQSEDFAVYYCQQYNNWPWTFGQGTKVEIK
notes: also called family 2 anti-CD3 FlicAb
B3: SEQ ID NO 6 (antibody, V domains shown)
VH: B1 VH with D30A, D31N, G59D, R107S, L108R
VL: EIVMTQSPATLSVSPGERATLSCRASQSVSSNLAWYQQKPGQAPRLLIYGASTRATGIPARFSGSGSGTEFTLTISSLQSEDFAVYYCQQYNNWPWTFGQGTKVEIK
notes: as for B2
B4: SEQ ID NO 3 (antibody, V domains shown)
VH: B1 VH with N77K, R107S, L108R
VL: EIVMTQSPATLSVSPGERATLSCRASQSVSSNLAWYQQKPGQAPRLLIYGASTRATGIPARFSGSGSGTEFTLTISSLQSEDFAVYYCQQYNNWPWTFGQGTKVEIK
notes: as for B2
B5: SEQ ID NO 8 (antibody, V domains shown)
VH: B1 VH with R16G, D30A, R107S, L108R
VL: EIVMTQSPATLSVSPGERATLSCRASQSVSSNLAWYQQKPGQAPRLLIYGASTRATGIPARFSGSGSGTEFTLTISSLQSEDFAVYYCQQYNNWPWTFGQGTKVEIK
notes: as for B2
B6: SEQ ID NO 16 (antibody, V domains shown)
VH: B1 VH with N77K
VL: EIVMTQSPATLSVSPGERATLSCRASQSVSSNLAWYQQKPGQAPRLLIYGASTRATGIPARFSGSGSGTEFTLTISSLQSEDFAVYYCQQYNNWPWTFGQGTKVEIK
notes: as for B2
B7: SEQ ID NO 4 (antibody, V domains shown)
VH: B1 VH with A88P, R107S
VL: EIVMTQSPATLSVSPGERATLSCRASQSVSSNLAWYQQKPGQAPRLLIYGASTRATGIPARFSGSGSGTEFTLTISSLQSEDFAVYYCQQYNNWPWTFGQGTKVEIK
notes: as for B2
B8: SEQ ID NO 10 (antibody, V domains shown)
VH: B1 VH with D31N, R107S, L108R
VL: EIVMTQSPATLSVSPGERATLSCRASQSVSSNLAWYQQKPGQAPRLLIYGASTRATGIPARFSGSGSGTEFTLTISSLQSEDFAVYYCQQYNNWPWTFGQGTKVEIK
notes: as for B2
B9: SEQ ID NO 2 (antibody, V domains shown)
VH: B1 VH with Q13K, R16G
VL: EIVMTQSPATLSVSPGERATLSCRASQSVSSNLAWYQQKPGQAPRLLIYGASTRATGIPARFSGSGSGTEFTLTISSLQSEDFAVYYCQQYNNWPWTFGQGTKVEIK
notes: as for B2
B10: SEQ ID NO 12 (antibody, V domains shown)
VH: B1 VH with A88P, D105S, R107S, L108R
VL: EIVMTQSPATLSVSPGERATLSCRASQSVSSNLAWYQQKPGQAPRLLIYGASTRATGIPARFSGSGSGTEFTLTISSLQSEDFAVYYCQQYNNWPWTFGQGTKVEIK
notes: as for B2
B11: SEQ ID NO 15 (antibody, V domains shown)
VH: B1 VH with D31N, N77K, R107S
VL: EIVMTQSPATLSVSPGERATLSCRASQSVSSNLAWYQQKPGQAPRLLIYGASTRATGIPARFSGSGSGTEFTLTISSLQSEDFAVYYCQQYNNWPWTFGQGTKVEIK
notes: as for B2
B12: SEQ ID NO 9 (antibody, V domains shown)
VH: B1 VH with D31N, N77K, R107S, L108R
VL: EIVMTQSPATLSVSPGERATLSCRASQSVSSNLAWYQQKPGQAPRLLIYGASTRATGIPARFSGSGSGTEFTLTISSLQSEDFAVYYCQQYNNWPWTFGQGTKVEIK
notes: as for B2
B13: SEQ ID NO 18 (antibody, V domains shown)
VH: B1 VH with A88P
VL: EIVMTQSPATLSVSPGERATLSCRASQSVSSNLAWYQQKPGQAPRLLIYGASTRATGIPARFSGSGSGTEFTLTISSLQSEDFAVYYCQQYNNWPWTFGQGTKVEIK
notes: as for B2
B14: SEQ ID NO 7 (antibody, V domains shown)
VH: B1 VH with D30N, D31N, A88G, R107S, L108R
VL: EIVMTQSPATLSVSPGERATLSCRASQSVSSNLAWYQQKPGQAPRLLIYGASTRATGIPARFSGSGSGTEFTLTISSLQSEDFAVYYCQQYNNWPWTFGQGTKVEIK
notes: as for B2
B15: SEQ ID NO 11 (antibody, V domains shown)
VH: B1 VH with R107S, L108R
VL: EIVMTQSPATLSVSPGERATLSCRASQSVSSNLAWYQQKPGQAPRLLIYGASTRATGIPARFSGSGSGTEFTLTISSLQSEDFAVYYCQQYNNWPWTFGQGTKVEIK
notes: as for B2
B16: SEQ ID NO 17 (antibody, V domains shown)
VH: B1 VH with A23E
VL: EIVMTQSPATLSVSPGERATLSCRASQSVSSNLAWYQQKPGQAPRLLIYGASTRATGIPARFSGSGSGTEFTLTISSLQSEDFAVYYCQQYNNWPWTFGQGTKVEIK
notes: as for B2
B17: SEQ ID NO 13 (antibody, V domains shown)
VH: B1 VH with D30H, D31N, R107S
VL: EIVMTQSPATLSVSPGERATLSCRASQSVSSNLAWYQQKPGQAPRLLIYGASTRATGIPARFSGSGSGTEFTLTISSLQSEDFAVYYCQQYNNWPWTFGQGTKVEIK
notes: as for B2

Each binder was assayed against T1, human CD3 (human, UniProt P07766 23-207; P04234 22-171) (assay: flow cytometry on primary human T cells).
T1 construct: also called CD3 on human T cells
T1 sequence (P07766 23-207 limits assumed, chain 1 of 2): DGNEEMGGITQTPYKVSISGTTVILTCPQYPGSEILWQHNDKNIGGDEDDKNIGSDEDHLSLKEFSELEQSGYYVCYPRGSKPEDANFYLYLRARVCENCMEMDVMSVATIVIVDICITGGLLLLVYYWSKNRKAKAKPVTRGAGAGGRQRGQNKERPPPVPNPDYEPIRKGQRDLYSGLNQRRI
T1 sequence (P04234 22-171 limits assumed, chain 2 of 2): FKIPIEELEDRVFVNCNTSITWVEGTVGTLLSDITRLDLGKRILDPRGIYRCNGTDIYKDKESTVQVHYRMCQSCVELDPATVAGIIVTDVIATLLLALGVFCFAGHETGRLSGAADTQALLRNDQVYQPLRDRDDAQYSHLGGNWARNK

Binding result, binds:
B1
B2
B3
B4
B5
B6
B7
B8
B9
B10
B11
B12
B13
B14
B15
B16
B17

— patent US20250179180A1 (TENEOBIO, published 2025)
